Assays:
[1] = system: Botrytis cinerea R16; assay: Prolonged incubation antifungal assay followed over 14 days; format: cell-based; settings: followed over a period of 14 days (FIG. 9)
Protocol: Two-fold dilutions of purified VHH 10G11Q were prepared in 96-well microtiter plates. To 20 μl of these dilutions and to 20 μl of water as a control, 80 μl of fungal spore suspension (1 E+05 spores/ml in half strength potato dextrose broth (PDB)) were added, starting with a final VHH 10G11Q concentration of 10 μM. […] All tests were performed in at least 2 replicates.

[2] = system: Podosphaera aphanis; assay: Control of powdery mildew on strawberry in greenhouse; format: in vivo; settings: 250, 500, 750 g ai/ha, 6 applications
Protocol: Four replicates of 20 strawberry plants (3 m^2 per plot) were treated with 0.576 or 0.72 l of spray solution, corresponding with a spray volume of […], according to local practice. The spray mix contained a concentration of active ingredient as described in Table 6. Six applications were performed spaced 7 days apart. No artificial infection was performed and first spray was placed before first symptoms appeared. The efficacy of 10G11 was compared to that of a non-treated control and the chemical reference Topas 2.5 WG (Penconazole). In addition, a chemical rotation of Ganzo (Myclobutanil), Topas 2.5 WG (Penconazole) and Signum (Boscalid+Pyraclostrobin) was evaluated. A seventh treatment replaced part of the chemicals in this chemical rotation by 10G11 as described in Table 6.
Efficacy assessments were performed on 20 leaves per plot, assessing the percentage of leaf area affected (PESSEV) and the percentage of leaves affected (PESINC) on the whole plot. Assessments were performed on a weekly basis and continued until 2 weeks after the last application.

[3] = system: liposomes from total lipid extract (TLE) of Botrytis cinerea hyphae; assay: Interaction with DPH-containing liposomes (fluorescence); format: binding
Protocol: (§1) In order to investigate the putative interaction partner of 10G11 and its variants, lipids were extracted from Botrytis cinerea hyphae as described in Example 1. For the further fractionation of the total lipid extract thin-layer chromatography was used (TLC; Skipski et al (1965), Biochimica et Biophysica Acta, 106(2): 386-396). The extract was spotted on a silica gel glass plate and run in a chromatography tank filled with 100 mL of the chloroform/methanol mixture (85/15, v/v). Lipid bands separated by TLC were stained with alpha-naphthol enabling visual detection of lipids. Four fractions were identified (FIG. 10): Fraction 1, the fraction of polar lipids; Fraction 2, with a Retention Factor (Rf) similar to the glucosylceramide reference standard (GlcCer from Tamogitake), likely to be ceramides; Fraction 3, with a slightly higher Rf than the reference standard; and Fraction 4, the non-polar phospholipids (PLs). For obtaining sufficient material from the separate Fractions, normal-phase flash chromatography can be used (Gorden, M. H. (2015). Encyclopedia of Analytical Science (Second edition), Elsevier). The TLE was therefore dissolved in CH2Cl2 by addition of a few drops of MeOH and loaded onto a 4 g normal phase flash cartridge with 15 μm particles. The column was run with CH2Cl2/MeOH (85/15, v/v) as the eluent. Finally, Fractions were filtered through a 0.45 μm syringe filter (nylon membrane), and dried. Hereafter, liposomes from the true lipid extract and its individual fractions were prepared via the thin-film hydration method with the addition of 1,6-diphenyl-1,3,5-hexatriene (DPH) (Trucillo et al, 2020. Processes 8(9):1022; Zhang, 2017. Liposomes 1522:1 7-22). […] Any disruption of the lipid membranes would lead to a decrease in fluorescent signal. Hereafter, the interaction of 10G11 with these liposomes was tested.

[4] = system: liposomes from Fraction 3 of Botrytis cinerea lipid extract; assay: as above; format: binding; settings: Fraction 3 liposomes (FIG. 11)
Protocol: as §1

[5] = system: liposomes from Fraction 4, the non-polar phospholipids (PLs), of Botrytis cinerea lipid extract; assay: as above; format: binding; settings: Fraction 4 liposomes (FIG. 11)
Protocol: as §1

[6] = system: Fraction 3; assay: ELISA with biotinylated liposomes on streptavidin-coated plates; format: binding, Botrytis cinerea
From the text: Dissociation constants (Kd) can be estimated based on the results of an ELISA. In equilibrium analysis as in ELISA, the Kd can be calculated from the equilibrium binding response. Where the ELISA plate wells are coated with a target antigen, and where the target antigen may be a lipid-containing fraction of the membrane of Botrytis cinerea, such a method may further use a range of concentrations of a polypeptide binding the target antigen. Where the ELISA generally provides a quantitative adsorption measure for each polypeptide concentration representing binding of the polypeptide to the target antigen, the range of concentration of a polypeptide may for example be 0.5, 1, 2.5, 5, and 10 μM. The most suitable range of concentrations used can vary depending on the affinity of the polypeptide to the target antigen. The corresponding absorption values as determined by ELISA may result in a sigmoid curve when absorption values are plotted against the logarithmic conversion of the polypeptide concentrations. This sigmoid curve may serve to define an IC50 value. Where this IC50 is the concentration of polypeptide where the corresponding absorption value is 50% of the saturated value as estimated by the maximum of the sigmoidal function, the Kd can be estimated by 1/Ka were the association constant (Ka) can be estimated as 1/IC50. Thus Kd corresponds to the analyte concentration that reaches equilibrium at 50% binding saturation. Commonly computation methods can be used for these calculations. For example, this can be done using GraphPad. In some embodiments, the Kd may be determined by surface plasmon resonance (SPR).
The above-mentioned method for the formation of liposomes (Example 12) was modified with the addition of a biotinylated lipid (12:0 Biotinyl M G (1-(12-N-biotin)aminododecanoyl-rac-glycerol), Sigma Aldrich), to allow for use of these liposomes for ELISA using streptavidin-coated plates (Pierce™ Streptavidin Coated High Capacity Plates, Clear, 96-Well, blocked with SuperBlock™ Buffer, Thermo Fisher Scientific).
To estimate the dissociation constant Kd value of 10G11 binding to Fraction 3, the ELISA set-up with biotinylated liposomes from Fraction 3 as described in Example 13 was used. 10G11 polypeptide was added in the following concentrations: 0.5, 1, 2.5, 5, and 10 μM, prepared by a serial dilution in phosphate buffer. […] This plot was used to estimate the Kd dissociation constant using GraphPad. Where non-linear regression fitting was used.

[7] = system: Botrytis cinerea spores; assay: Microscopic time-lapse imaging of spores (mode of action); format: cell-based; settings: IncuCyte time-lapse imaging (FIG. 14)
From the text: The action of 10G11 disrupting liposomes (Example 12), further underscores lysing of spores can be attributed to the action of 10G11.

B1: 10G11: VHH polypeptide, SEQ ID NO: 2, begins with a D residue (protein)
VHH: DVQLVESGGGLVQAGGSLRLSCAASRSIFSINAMDWYRQAPGKQREWVAGITRGGTTKYADSVKGRFTISRDNAKKKVYLQMNSLKPEDTAVYYCNVLRGEQPWTRDYWGQGTQVTVSS
effect on preventing spore outgrowth [1]: allowed spore outgrowth to partly reinitiate after 3 days | severity (PESSEV) of powdery mildew on strawberry ([2]; until two weeks after the last application (FIG. 24)): clear and dose-related performance | incidence (PESINC) of powdery mildew on strawberry ([2]; until two weeks after the last application (FIG. 25)): clear and dose-related performance | membrane disruption of liposome vesicles ([3]; stated generally for the liposomes with which 10G11 interacts (FIG. 11)): breakage of the vesicles | interaction with lipids in liposomes (DPH fluorescence) ([3]; total lipid extract (TLE) liposomes (FIG. 11)): interacts | interaction with lipids in liposomes (DPH fluorescence) [4]: interacts | interaction with lipids in liposomes (DPH fluorescence) [5]: interacts | IC50 ([6]; 0.5, 1, 2.5, 5 and 10 μM polypeptide, non-linear regression fitting in GraphPad (FIG. 29), read-out: IC50 of ELISA absorption plot): 760 to 1550 nM | Kd ([6]; converted from the ELISA IC50 range (FIG. 29), read-out: dissociation constant Kd, estimate): 760 to 1550 nM | spore lysis (loss of structural integrity) [7]: substantial portion of spores are also lysed | spore outgrowth [7]: inhibited in commencing spore outgrowth

— patent US12098378B2, “Anti-fungal polypeptides” (priority 2020, dated 2024)
